Reference: article PMC5383425, “Differential CLE peptide perception by plant receptors implicated from structural and functional analyses of TDIF-TDR interactions” (PLoS ONE, 2017)
Changes are numbered by the printed parent chain. Square brackets hold non-standard residues; d marks the D form. Ends that are not written are not given here. Hyp = O=C(O)[C@@H]1C[C@@H](O)CN1

How the values were obtained:
Assay in all cases: ITC; 0.5–1 mM peptide titrated into 10–40 μM ecdTDR; 25°C; 10 mM sodium citrate, 100 mM NaCl, pH 5.5; fitted to one set of binding sites; MicroCal Auto-iTC200
Details in all cases: both partners purified
ecdTDR W325A mutant = target: T1, ecdTDR W325A mutant (Arabidopsis thaliana, UniProt Q9FII5 30-642, single alanine substitution of W325)
T1 construct: TDR/PXY of A. thaliana, extracellular domain, residues 30-642; also called single alanine substitution of W325; source: High Five insect cells (baculovirus), secreted, purified as the wild type (Ni-NTA, size-exclusion chromatography)
T1 sequence (looked up): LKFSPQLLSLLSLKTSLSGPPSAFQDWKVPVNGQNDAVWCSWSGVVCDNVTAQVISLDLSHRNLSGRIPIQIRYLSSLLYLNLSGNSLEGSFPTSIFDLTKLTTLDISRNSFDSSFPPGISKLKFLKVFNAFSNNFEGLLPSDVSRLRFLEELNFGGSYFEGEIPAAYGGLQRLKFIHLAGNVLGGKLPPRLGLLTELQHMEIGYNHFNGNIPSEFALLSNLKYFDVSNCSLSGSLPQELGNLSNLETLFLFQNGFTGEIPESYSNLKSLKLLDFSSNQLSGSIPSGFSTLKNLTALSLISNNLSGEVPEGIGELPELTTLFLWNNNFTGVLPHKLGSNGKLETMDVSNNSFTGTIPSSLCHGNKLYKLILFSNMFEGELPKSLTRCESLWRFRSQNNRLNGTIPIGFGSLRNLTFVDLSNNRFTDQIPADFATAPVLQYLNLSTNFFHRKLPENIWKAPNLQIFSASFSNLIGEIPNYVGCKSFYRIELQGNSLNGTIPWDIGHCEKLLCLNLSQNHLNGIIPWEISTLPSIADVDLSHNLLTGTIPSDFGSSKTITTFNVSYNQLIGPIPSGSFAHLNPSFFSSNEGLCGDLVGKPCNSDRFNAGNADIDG

ecdTDR R138A mutant = target: T2, ecdTDR R138A mutant (Arabidopsis thaliana, UniProt Q9FII5 30-642, R138A)
T2 construct: TDR/PXY of A. thaliana, extracellular domain, residues 30-642; source: High Five insect cells (baculovirus), secreted, purified as the wild type (Ni-NTA, size-exclusion chromatography)
T2 sequence (looked up): T1 sequence (looked up) with R109A, A296W

[1] = target: T3, ecdTDR Y234 alanine mutant (Arabidopsis thaliana, UniProt Q9FII5 30-642, alanine substitution of Y234)
T3 construct: TDR/PXY of A. thaliana, extracellular domain, residues 30-642; The text says only 'mutational analyses' of Y234; source: High Five insect cells (baculovirus), secreted, purified as the wild type (Ni-NTA, size-exclusion chromatography)
T3 sequence (looked up): T1 sequence (looked up) with Y205A, A296W

Measured: binding result

B1: Tracheary Element Differentiation Inhibitory Factor (TDIF) peptide (peptide)
peptide: HEV[Hyp]SG[Hyp]NPISN
notes: TDIF, the 12-residue CLE peptide processed from CLE41 and CLE44 of A. thaliana; printed as HEV(Hyp)SG(Hyp)NPISN; numbers count on: the 12-residue peptide; CLE44 encodes the same peptide; also called wild type TDIF; wtTDIF; source: synthetic peptide (peptide 2.0)
binds: all assays above
